PMC6616073
No end group written: not given here.

Biological target: membrane-bound Torpedo californica nicotinic acetylcholine receptor (Torpedo californica)
Assay: radioligand binding

Chain of membrane-bound Torpedo californica nicotinic acetylcholine receptor (Torpedo californica) (P02710 25-461 limits assumed, chain 1 of 4): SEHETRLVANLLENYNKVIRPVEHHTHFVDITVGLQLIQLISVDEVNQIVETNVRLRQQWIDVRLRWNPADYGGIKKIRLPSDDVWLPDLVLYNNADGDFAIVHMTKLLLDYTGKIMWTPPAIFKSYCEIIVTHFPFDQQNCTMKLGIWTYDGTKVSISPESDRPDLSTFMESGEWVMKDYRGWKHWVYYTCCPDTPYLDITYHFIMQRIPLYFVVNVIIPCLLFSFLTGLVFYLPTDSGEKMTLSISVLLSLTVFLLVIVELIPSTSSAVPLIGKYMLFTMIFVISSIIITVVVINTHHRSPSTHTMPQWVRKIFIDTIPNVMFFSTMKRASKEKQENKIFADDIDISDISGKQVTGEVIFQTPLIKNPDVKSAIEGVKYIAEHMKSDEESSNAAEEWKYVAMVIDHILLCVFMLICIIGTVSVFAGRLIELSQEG
Chain of membrane-bound Torpedo californica nicotinic acetylcholine receptor (Torpedo californica) (P02712 25-493 limits assumed, chain 2 of 4, further chain): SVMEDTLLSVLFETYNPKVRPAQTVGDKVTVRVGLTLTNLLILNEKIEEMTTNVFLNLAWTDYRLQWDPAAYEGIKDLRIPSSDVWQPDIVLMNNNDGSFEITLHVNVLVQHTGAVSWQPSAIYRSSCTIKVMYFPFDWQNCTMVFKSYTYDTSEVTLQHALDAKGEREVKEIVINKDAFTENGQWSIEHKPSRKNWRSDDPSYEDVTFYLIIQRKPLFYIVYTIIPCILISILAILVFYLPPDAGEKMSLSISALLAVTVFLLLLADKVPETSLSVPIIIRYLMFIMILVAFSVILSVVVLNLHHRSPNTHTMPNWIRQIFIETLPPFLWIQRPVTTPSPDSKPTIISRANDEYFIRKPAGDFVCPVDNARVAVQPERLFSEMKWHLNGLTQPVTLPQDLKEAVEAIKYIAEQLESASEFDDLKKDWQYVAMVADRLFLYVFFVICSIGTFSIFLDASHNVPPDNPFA
Chain of membrane-bound Torpedo californica nicotinic acetylcholine receptor (Torpedo californica) (P02714 18-506 limits assumed, chain 3 of 4, further chain): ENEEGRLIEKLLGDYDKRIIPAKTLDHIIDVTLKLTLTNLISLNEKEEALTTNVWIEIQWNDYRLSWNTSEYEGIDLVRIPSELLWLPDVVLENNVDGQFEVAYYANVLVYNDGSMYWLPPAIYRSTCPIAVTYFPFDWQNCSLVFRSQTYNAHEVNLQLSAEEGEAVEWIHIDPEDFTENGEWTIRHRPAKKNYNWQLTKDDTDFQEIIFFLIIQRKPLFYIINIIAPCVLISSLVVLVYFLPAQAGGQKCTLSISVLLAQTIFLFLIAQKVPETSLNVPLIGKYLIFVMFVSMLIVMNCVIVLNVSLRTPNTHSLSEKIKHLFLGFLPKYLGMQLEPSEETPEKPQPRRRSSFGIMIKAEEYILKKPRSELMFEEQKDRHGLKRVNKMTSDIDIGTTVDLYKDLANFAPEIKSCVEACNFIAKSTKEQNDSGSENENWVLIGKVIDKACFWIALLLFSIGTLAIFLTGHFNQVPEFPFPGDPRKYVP
Chain of membrane-bound Torpedo californica nicotinic acetylcholine receptor (Torpedo californica) (P02718 22-522 limits assumed, chain 4 of 4, further chain): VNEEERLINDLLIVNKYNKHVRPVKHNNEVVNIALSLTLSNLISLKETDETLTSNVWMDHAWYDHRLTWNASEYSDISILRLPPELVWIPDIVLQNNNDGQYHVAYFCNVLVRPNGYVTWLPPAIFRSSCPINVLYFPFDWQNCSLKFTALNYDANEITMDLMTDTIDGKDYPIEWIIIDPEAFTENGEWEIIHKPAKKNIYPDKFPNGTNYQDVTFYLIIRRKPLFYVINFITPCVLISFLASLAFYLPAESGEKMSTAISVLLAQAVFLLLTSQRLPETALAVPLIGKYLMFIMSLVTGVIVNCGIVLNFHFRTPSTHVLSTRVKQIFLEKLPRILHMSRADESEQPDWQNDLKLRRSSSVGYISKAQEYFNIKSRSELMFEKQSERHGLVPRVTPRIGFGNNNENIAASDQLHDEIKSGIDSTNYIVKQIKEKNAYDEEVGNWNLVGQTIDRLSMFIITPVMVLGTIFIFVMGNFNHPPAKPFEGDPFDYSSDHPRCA

Binder	IC50 [µM]
CTRTYYTPTRMC (not fully specified (bridges); cysteine pairing not given here) [Lynx1 short (3), shorter loop II fragment of human Lynx1 with terminal Cys, disulfide-cyclised]	74.1
TTRTYYTPTRMKVSK [Lynx1 linear (2), synthetic 15-membered loop II fragment of human Lynx1]	13.2
CTRTYYTPTRMC [Lynx1 short linear (4), shorter loop II fragment of human Lynx1 with free terminal Cys]	15.6
CTTRTYYTPTRMKVSKC (not fully specified (bridges); cysteine pairing not given here)	4.9
